According to paper PMC12221368, “Long AKAP18 isoforms anchor ubiquitin specific proteinases and coordinate calcium reuptake at the sarcoplasmic reticulum” (The Journal of Biological Chemistry, 2025):

Key:
[1] = biological target: GFP-AKAP18γ (UniProt Q9P0M2)
[2] = biological target: GFP-AKAP18δ (UniProt Q6JP77 1-353); test: cell-based or functional assay
Sequence of GFP-AKAP18δ (Q6JP77 whole entry, stated change not applied): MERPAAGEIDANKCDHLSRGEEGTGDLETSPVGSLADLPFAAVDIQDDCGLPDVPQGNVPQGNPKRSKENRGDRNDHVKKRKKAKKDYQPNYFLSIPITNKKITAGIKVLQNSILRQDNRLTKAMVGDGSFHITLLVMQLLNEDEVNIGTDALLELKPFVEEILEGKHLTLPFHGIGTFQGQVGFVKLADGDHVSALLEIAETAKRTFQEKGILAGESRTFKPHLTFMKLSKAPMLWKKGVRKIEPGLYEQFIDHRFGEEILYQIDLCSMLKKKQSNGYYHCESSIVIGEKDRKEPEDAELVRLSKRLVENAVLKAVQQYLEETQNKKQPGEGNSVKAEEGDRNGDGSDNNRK

Sequence of GFP-AKAP18γ (Q9P0M2 whole entry): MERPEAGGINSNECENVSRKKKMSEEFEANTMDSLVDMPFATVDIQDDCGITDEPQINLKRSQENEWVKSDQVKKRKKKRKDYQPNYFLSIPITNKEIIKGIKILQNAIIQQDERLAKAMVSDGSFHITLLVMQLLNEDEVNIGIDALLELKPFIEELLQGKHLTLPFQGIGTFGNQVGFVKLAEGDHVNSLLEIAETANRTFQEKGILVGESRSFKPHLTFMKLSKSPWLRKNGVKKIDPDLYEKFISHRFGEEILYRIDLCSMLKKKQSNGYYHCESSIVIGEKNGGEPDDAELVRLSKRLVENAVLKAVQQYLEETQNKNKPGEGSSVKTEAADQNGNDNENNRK

B1: V5-tagged USP4 (enzyme, UniProt Q13107 1-963, looked up)
chain: MAEGGGCRERPDAETQKSELGPLMRTTLQRGAQWYLIDSRWFKQWKKYVGFDSWDMYNVGEHNLFPGPIDNSGLFSDPESQTLKEHLIDELDYVLVPTEAWNKLLNWYGCVEGQQPIVRKVVEHGLFVKHCKVEVYLLELKLCENSDPTNVLSCHFSKADTIATIEKEMRKLFNIPAERETRLWNKYMSNTYEQLSKLDNTVQDAGLYQGQVLVIEPQNEDGTWPRQTLQSKSSTAPSRNFTTSPKSSASPYSSVSASLIANGDSTSTCGMHSSGVSRGGSGFSASYNCQEPPSSHIQPGLCGLGNLGNTCFMNSALQCLSNTAPLTDYFLKDEYEAEINRDNPLGMKGEIAEAYAELIKQMWSGRDAHVAPRMFKTQVGRFAPQFSGYQQQDSQELLAFLLDGLHEDLNRVKKKPYLELKDANGRPDAVVAKEAWENHRLRNDSVIVDTFHGLFKSTLVCPECAKVSVTFDPFCYLTLPLPLKKDRVMEVFLVPADPHCRPTQYRVTVPLMGAVSDLCEALSRLSGIAAENMVVADVYNHRFHKIFQMDEGLNHIMPRDDIFVYEVCSTSVDGSECVTLPVYFRERKSRPSSTSSASALYGQPLLLSVPKHKLTLESLYQAVCDRISRYVKQPLPDEFGSSPLEPGACNGSRNSCEGEDEEEMEHQEEGKEQLSETEGSGEDEPGNDPSETTQKKIKGQPCPKRLFTFSLVNSYGTADINSLAADGKLLKLNSRSTLAMDWDSETRRLYYDEQESEAYEKHVSMLQPQKKKKTTVALRDCIELFTTMETLGEHDPWYCPNCKKHQQATKKFDLWSLPKILVVHLKRFSYNRYWRDKLDTVVEFPIRGLNMSEFVCNLSARPYVYDLIAVSNHYGAMGVGHYTAYAKNKLNGKWYYFDDSNVSLASEDQIVTKAAYVLFYQRRDDEFYKTPSLSSSGSSDGGTRPSSSQQGFGDDEACSMDTN
With B1 the deubiquitinase activity (Ub-AMC fluorescent assay) in GFP immune complexes, fold over IgG controls, n = 3 [1] was 7.5 fold and the “deubiquitinase activity (Ub-AMC fluorescent assay) in GFP immune complexes, fold over IgG controls, n = 3” value [2] was 9.2 fold.
